# Test: soluble on expression in E. coli; label from the status in PepcDB or PDB records
row,Sequence,soluble on expression in E. coli
1,MTRMLPEPAYRHGSVGKIGVLMINLGTPDAPTAKALRAYLKQFLSEPRIVEFPRWLWWFILNGIILNVRPAKSAKKYEQIWTSEGSPLRVHTARQTALVAALLEQQADSSLVVEYAMIIGNPSIAEKLQQMKVQGCDRILVLPLFPQYAASSTGCVLDGVFSELRKMRNIPDIRTVRHYHDDPGYIAALAQNVRDYWEKHGQPDKLIISFHGVPRKTLEMGDPYHCECQKTGRLLAEALELADDRYQICFQSRFGFAQWLGPYTAEILAELGKQKTGRVDVVCPGFVSDCLETLEEIALEGKAIFTEAGGGEFHYIPSLNEHPLWIEAIGNIIQTHLTGWADRRLSEEAAERSRKRALALGARE,not soluble
2,MTRQGWLVPCLSHGKDDQLQDELSELSKAYRKKFQTDLHTKSGDIIDPSGEFLYVYLDEENYRICRQSMVLVSNAPDGLIATTLEPYSDSYTFRQVREQLQAFSGDGGRINYSRNEHSSSYFLTIQASNEFKHVGAVRNTFGQSKDIWKRRMPDASQPLDYHLIAVGCSAFLPEAALDDVESDGAVLEHHHHHH,not soluble
3,MTRTSKWTVHEAKSNPKYFTHNGNFGESPNHVKRGGYGKGNWGKPGDEINDLIDSGEIKTVFNKTRRGSNSQNNERRLSDLQQYHI,soluble
4,MTSAAEITAAVRQLYNTYPFPPEPLLDEPPPGYNWRWSWPAAYSFCTGRYPSQLDVAILDAGCGTGVGTEYLAHLNPQAKITALDLSEAALAIACERCRRSGATNVQFHHLSLEEVAQLGQTFQMINCVGVLHHLPEPQRGIQALADVLAPGGIVHIFVYGEYGRWEIKLMQQAIALLQGSDRHNYREGVAIGRQLFAALPENNRLKKREQERWSLENQRDECFADMYVHPQEIDYTIASLFELIRASGLEFIGFSNPQVWQLERLLGSQPELLQRAQQLDPIQQYQLIECLDPEAMTHFEFFLAKPPLPRHDWAADRELLAAIPWRHPCIDGWPGACVFNCHYEVIHLNQAEQEFLNAASGKATVAELLAQQPDFNLAEVRSLLARHLLLLGVKE,not soluble
5,MTSHKRFCLSSRSPSYHTTELSLPLYIKFISWDFDCFQVDDVGFRPIFSAKTPNSPFTVEILRSGISGIVFDERETNTTANDGRMNFAMEYIIDKLLGDRCVPITVETLQISVDRVHYIFSKNLNMICKNLDVSIIETGVTLDTILHTSSYPLKSLSLSNTWAFAHPIILTAELLIVPTSDHFHRITNARVHAISLSGDFKLFIYEWLENGREIGTEFTIGGFRGRDYAKKMVCDIKEEFDERFQVVRRSHFPLSIAIKMNDFSEIYVFYDDIMERSKVYFKVQPTQF,not soluble
6,MTSKTNMTSNKFAYDFFPWSNDTNSSQQIKNIKPPPKRSNRPTKRTTFTSEQVTLLELEFAKNEYICKDRRGELAQTIELTECQVKTWFQNRRTKKRSSELKFGTACSENKTSTKWYYDSKLLFCYPYKYLGCGEGSNSFESNENCLESCKPADQFSCGGNTGPDGVCFAHGDQGCKKGTVCVMGGMVGFCCDKKIQDEWNKENSPKCLKGQVVQFKQWFGMTPLIGRSCSHNFCPEKSTCVQGKWTAYCCQ,soluble
7,MTSQRCRRRYFMMIRERIEEKLRAAFQPVFLEVVDESYRHNVPAGSESHFKVVLVSDRFTGERFLNRHRMIYSTLAEELSTTVHALALHTYTIKEWEGLQDTVFASPPCRGAGSIA,soluble
8,MTTAAKTETEDPTARRILDAALEQFTVFGLRRSSMDDVAKRAGVSRVTVYRRFGTKDALVEQTLLRENSRFFQRLDQAVAALPTMEERVVEGFVVALRHTRAHPLFGGLLRLEPEVVLPYLTVHGGSSLAATVDYLTGHLRRAQQAEGRPGDDPRPVAELMVRVAVSFLLNPASCIEMDDEDQARAFARRYLAPLLNA,not soluble
9,MTTAHFYCQYCTASLLGKKYVLKDDSPYCVTCYDRVFSNYCEECKKPIESDSKDLCYKDRHWHEGCFKCTKCNHSLVEKPFAAKDERLLCTECYSNECSSKCFHCKRTIMPGSRKMEFKGNYWHETCFVCENCRQPIGTKPLISKESGNYCVPCFEKEFAHYCNFCKKVITSGGITFCDQLWHKECFLCSDCRKDLCEEQFMSRDDYPFCMDCYNHLYANKCVACSKPISGLTGAKFICFQDSQWHSECFNCGKCSVSLVGKGFLTQNKEIFCQKCGSGMDTDI,soluble
10,MTTEHETHAAELGAPEPECARCGKVLPLCICDTVEPIASRTQLLILQHPQEQDRALGTARLTAQHFKNAEVRIGLSWPSLSKALGRTVHDPSRWAVLYLGSARAAELAEGREILAVDAKGQPEPHQDMILDEIEGVVLLDGTWSQAKALWWRNAWMLKCQRVILDPSAPSRYGRLRKEPRRDGLSTLEAAAMLLSRLEHRPEIETKLLEAFDRMLARFKQVQAERPDLAPKPKKRDWRRKKRGLEHHHHHH,not soluble
11,MTTEKEMKQIQNEFKERMDEGELLNCMRCGFCLPSCPTYIESGFQETHSPRGRIALMKAVADGMIEPDEDVERSLSLCLGCRACEPVCPSGVKYGQLLEEARDIIHQNKKHSLGERVMRKTAFHELFPHQNRMRSAVSLIGLYQRSGLQTAVRKSGMLRVLPEHLRTMEAVLPDVPKSKDMKHRPRFLPSIGPMKKRVAFFSGCLMDTMFLPTNNATLKLLQLAGCDIVIPPEQACCGALHGHSGEKNTGKELAKQNIAAFEALDVDAVITNAGGCGAFLTEYDHLLKDDPEWSERAAAFVQKLKDFSSVLVELDFHQMDLALETPQVVTYQDSCHLRNVMHTSLEPRQLLKSIKGAEFKEMEKADSCCGSAGIYNIVEVEMSMKILDSKMAAVKATEAILIVTANPGCLLQMKLGIEREGLSGKVRAVHLADLLLEAAGHKTS,not soluble
12,MTTELETSFADLGLSAPILSALTDLGYEKPSPIQLECIPHLLNGRDVLGMAQTGSGKTAAFGLPLLHNIKADLKSPQVLVLAPTRELAVQVAEALSSFSKHINGVNVVALYGGQRYDVQLRALRQGPQVVVGTPGRLLDHLKRGTLNLSNLSGLVLDEADEMLRMGFIEDVETIMAQIPAEHQTALFSATMPEAIRRITRRFMKEPQEVRIQSSVTTRPDISQSYWRVGGGYRKNEALVRFLEAEDFDAAIIFVRTKNATLEVAEALERSGYNSAALNGDMNQALREQTLERLKDGRLDILIATDVAARGLDVERISLVVNYDIPMDSESYVHRIGRTGRAGRAGRALLFVENRERRLLQNIERTMKLTIPEVELPNADLLSERRLAKFAAKVSQQLESSDLDMYRALLAKLQPEEEFDIETLAAALLKMAQGERPLILPPEAPRRPQREFNSRDDRGNDRGSRDRGDSRRDNRSDSRSADSRDGGERPARRERRDVGEMELYRIEVGRDDGVEVRHIVGAIANEGDISSRYIGNIKLFASHSTIELPKGMPGEMLSHFTRTRILNKPLNMQLLGDAQPHERRERPAGGNGGERRGGGRPFSGERREGAGAPPRRSFSGDRAPTGGGERRGNRDGQRSAAPRRDDAAAPAAAAAAPARRRFGDA,not soluble
13,MTTILSVRDVKKVIGKKTIVENISFDVKQGEVFGFLGPNGAGKTTTIRMLVGLIKETEGTISIGGYSIKENFREAMRQIGSIVENPELYTYLTGWENLKQFARMLGGISDERIIEIAHMVHLDERIHDKVKTYSLGMKQRLGIAQALLGNPKLLILDEPTNGLDPAGIRELREFIHKLVKEENMSVFISSHLLSEVQMICDRVAIIHKGKMITVAKVEELIKTASDRVEWIVTPISKTKDMLVDAEEVREVSIEGDRLLCRMHISSISNWNKTFVENGIDVHSVKELVFTLEDLFIELTRGEQHA,not soluble
14,MTTKNTLQPTEAAYIAGFLDGDGSIYAKLIPRPDYKDIKYQVSLAISFIQRKDKFPYLQDIYDQLGKRGNLRKDRGDGIADYTIIGSTHLSIILPDLVPYLRIKKKQANRILHIINLYPQAQKNPSKFLDLVKIVDDVQNLNKRADELKSTNYDRLLEEFLKAGKIESSP,soluble
15,MTTKYAALLRGINVGGSRKVPMADLRALLTSLGHDAVRTHLQSGQAVFAAAHGDEDSLAAELAEAIGERFGFPVDVIVRDHAYLRSVVEACPFPAAELEARQLHVTYFSAPVEADRFAAIDAPAFRPEEFRLGDRALYLYAPDGLGRSKLAEALARPRVNKGLVATSRNWNTVTKLVELTGP,not soluble

# — the DeepSol protein solubility set
